Experimental data taken from doi:10.1101/743195.

Biological target: human low-density lipoprotein (LDL) particles (human)
Assay: co-sedimentation

Substance | percent inhibition of LDL binding against WT [%] | percent decrease of LDL binding [%]
PCSK9 A44P (from UniProt Q8NBP7) (natural protein) | > 90 | 
PCSK9 Y38A (from UniProt Q8NBP7) (natural protein) |  | > 50
